The conditions of data set [1]: Type I Galβ(1,3)GlcNAc; literature refs 34, 35; read-out: Km reported; cited from earlier work.
For data set [2] the following is noted: Type II Galβ(1,4)GlcNAc; literature refs 34, 37; read-out: Km reported; cited from earlier work.
A short description of data set [3]: Enzyme kinetics, apparent Km, Type I substrate. The format is biochemical. The following applies: Type I Galβ(1,3)GlcNAc; lysates of transfected COS cells. The procedure:
(§1) Cells were washed twice with phosphate buffered saline and lysed in either 1% Triton X100/100 mM Tris pH7.0 or 1% Triton X100/100 mM sodium cacodylate pH 6.5/25 mM MnCl2 at 4° C. for 30 min, lysates centrifuged and the supernatant collected and stored at −70° C. Protein concentration was determined by the Bradford test, using bovine serum albumin as a standard; 5-20 μg of cell extract was used per transferase assay. The assay for α-1,2 fucosyltransferase involved mixing cell extracts and acceptor (75 mM pheny-β-Dgalactoside (Sigma)) in 50 μl 50 mM MOPS (3-[N-Morpholino]propanesulphonic acid) pH 6.5; 20 mM MnCl2; 5 mM ATP; 3 μM GDP[^14C]-Fuc (specific activity 287 mCi/mmol, Amersham International plc, Amersham, UK) and incubation for 2 h at 37° C. The reaction was terminated by the addition of ethanol, and the incorporated ^14C-Fuc determined by liquid scintillation counting after separation in Sep-Pak C18 cartridges (Waters-Millipore, Millford, Mass.). In all cases the parallel reactions were performed in the absence of added acceptor molecules, to allow for the calculation of specific incorporation.
(§2) Cell lysates prepared from COS cells transfected in the manner described in Example 1 with pFUT2 (pig Se), pFUT1 (pig H transferase), or with vector alone were assayed for α(1,2)-fucosyltransferase activity, and the kinetic values were calculated. […]

Data set [4] is described as follows: Enzyme kinetics, apparent Km, lactose. The following applies: Lactose Galβ(1,4)Glc; lysates of transfected COS cells. The format is biochemical. The protocol:
as §1, §2

Data set [5] can be described thus: Enzyme kinetics, apparent Km, Type III substrate. Type of data set: biochemical. Particulars: Type III Galβ(1,3)GalNAc; lysates of transfected COS cells. The procedure:
as §1, §2

Data set [6] in a line: Enzyme kinetics, apparent Km, Type IV substrate. The format is biochemical. The following applies: Type IV Galβ(1,4)Gal; lysates of transfected COS cells. The procedure: as §1, §2
A short description of data set [7]: Enzyme kinetics, apparent Km, Type II substrate. The format is biochemical. Particulars: Type II Galβ(1,4)GlcNAc; lysates of transfected COS cells. The protocol: as §1, §2
Data set [8] has as its system α(1,2)-fucosyltransferase. Kind of data set: α(1,2)-fucosyltransferase activity in lysates of transfected COS cells. Type of data set: biochemical, pig. The following applies: mock-transfected baseline 1.1. The protocol: as §1
Cell lysates prepared from COS cells transfected with pFUT2 and pFUT1 were assayed for α(1,2)-fucosyltransferase activity. […] The enzyme activity measured in these lysates reflects the expression of H substance on the cell surface as shown in Example 2.

For data set [9] the following is noted: Type III Galβ(1,3)GalNAc; literature ref 34; read-out: Km reported; cited from earlier work.

Read-outs that look alike come from different tables or passages of the source.

In general, Km refers to the concentration of substrate that gives half-maximal velocity.

B1: human FUT1: human α(1,2)-fucosyltransferase FUT1 (H transferase), literature homologue (protein, UniProt P19526 1-365, looked up)
Galactoside …: MWLRSHRQLCLAFLLVCVLSVIFFLHIHQDSFPHGLGLSILCPDRRLVTPPVAIFCLPGTAMGPNASSSCPQHPASLSGTWTVYPNGRFGNQMGQYATLLALAQLNGRRAFILPAMHAALAPVFRITLPVLAPEVDSRTPWRELQLHDWMSEEYADLRDPFLKLSGFPCSWTFFHHLREQIRREFTLHDHLREEAQSVLGQLRLGRTGDRPRTFVGVHVRRGDYLQVMPQRWKGVVGDSAYLRQAMDWFRARHEAPVFVVTSNGMEWCKENIDTSQGDVTFAGDGQEATPWKDFALLTQCNHTIMTIGTFGFWAAYLAGGDTVYLANFTLPDSEFLKIFKPEAAFLPEWVGINADLSPLWTLAKP
For B1, the Km in [1] is 2 mM; in [2], 1.9 mM.

B2: pFUT2: pig Secretor type α(1,2)-fucosyltransferase expressed in COS cells; label also used for the plasmid encoding it (protein, UniProt Q10982 1-340, looked up)
Galactoside …: MLSMQASFFFPTGPFILFVFTASTIFHLQQRMVKIQPTWELQMVTQVTTESPSSPQLKGMWTINAIGRLGNQMGEYATLYALARMNGRPAFIPPEMHSTLAPIFRITLPVLHASTARRIPWQNYHLNDWMEERYRHIPGEYVRLTGYPCSWTFYHHLRTEILREFTLHNHVREEAQDFLRGLRVNGSRPSTYVGVHVRRGDYVHVMPNVWKGVVADRRYLEQALDWFRARYRSPVFVVSSNGMAWCRENINASRGDVVFAGNGIEGSPAKDFALLTQCNHTVMTIGTFGIWAAYLAGGETIYLANYTLPDSPFLKLFKPEAAFLPEWIGIEADLSPLLKH
On to B2, for which the Km in [3] was determined as 1.3 mM; in data set [4], 7.4 mM; in data set [5], 0.2 mM; in [6], 1.5 mM; in [7] it was 4.4 mM. Moreover, in data set [8], the “α(1,2)-fucosyltransferase activity” value amounted to 151.1 nmol/h/mg.

B3: pFUT1: pig H type α(1,2)-fucosyltransferase expressed in COS cells; label also used for the plasmid encoding it (protein, UniProt Q29043 1-365, looked up)
Galactoside …: MWVPSRRHLCLTFLLVCVLAAIFFLNVYQDLFYSGLDLLALCPDHNVVSSPVAIFCLAGTPVHPNASDSCPKHPASLSGTWTIYPDGRFGNQMGQYATLLALAQLNGRQAFIQPAMHAVLAPVFRITLPVLAPEVDRHAPWRELELHDWMSEDYAHLKEPWLKLTGFPCSWTFFHHLREQIRSEFTLHDHLRQEAQGVLSQFRLPRTGDRPSTFVGVHVRRGDYLRVMPKRWKGVVGDGAYLQQAMDWFRARYEAPVFVVTSNGMEWCRKNIDTSRGDVIFAGDGREAAPARDFALLVQCNHTIMTIGTFGFWAAYLAGGDTIYLANFTLPTSSFLKIFKPEAAFLPEWVGINADLSPLQMLAGP
Turning to B3, the Km worked out at 6 mM in data set [3]; 1.9 mM in data set [4]; 14 mM in data set [5]; 4.2 mM in [6]; 3.7 mM in [7]. In data set [8], the “α(1,2)-fucosyltransferase activity” value stood at 140.0 nmol/h/mg.

B4: rabbit FUT1: rabbit α(1,2)-fucosyltransferase FUT1, literature homologue (protein, UniProt Q10979 1-373, looked up)
Galactoside …: MWPPSRRQLCLAFLLVCALSAFSFLLHLHQDLFRNGLALSLPCLERQPVPAPVAIVCLPVTSPASNASSCAGRPAAPSGIWTIHPDGRFGNQMGQYATLLALAQLNGRRAFILPAMHAALAPVFRITLPVLAPEVNRRTSWKQLLLHDWMSEEYSRLEDPFLKFTGFPCSWTFFHHVREQIRREFTLHDHLREEAQRLLGKLRLGRTGARPRTFVGVHVRRGDYLQVMPQRWKGVVGDRAYLQQAMDWFRARHEAPIFVVTSNGMKWCWENIDASRGDVVFAGNGLESSPAKDFALLTQCNHTVMTIGTFGFWAAYLAGGDTVYLANFTLPDSEFLKIFKPEAAFLPEWVGINADLSPVRTLSGSWRPWRFLG
For the molecule B4, the Km in data set [9] is 5.8 mM; in data set [1], 3.1 mM; in data set [2], 4.2 mM.

B5: rabbit FUT2: rabbit α(1,2)-fucosyltransferase FUT2, literature homologue (protein, UniProt Q10983 1-354, looked up)
Galactoside …: MRFAPDYVLCPPTATRRLRATHPSVSTIYFLFTIFVVSTVFHCHQRLALVPAPWAYSARVVVVPGHLPREGMWTINAMGRLGNQMGEYATLYALAKENGRPAYIPAQMHSTLAPIFRISLPVLHSSTASRVPWQNYHLNDWMEERYRHIPVPYVRLTGYPCSWTFYHHLRHEILREFTLHDHVREEAQAFLRGLRVNGSRPSTFVGVHVRRGDYVRVMPQVWKGVVADRGYLEQALDWFRAPTAPPVFVVTSNGMAWCRENIDASRGDVVFAGNGLEGSPAKDFALLTQCNHTVMTIGTFGFWAAYLTGGDTVYLANYTAPDSPFHLVFKPEAAFLPEWVGITANMGRALWSGL
As for B5, the figures for the Km in [9], in [1] and in data set [2] were 1 mM, 1.5 mM and 6.7 mM, respectively.

B6: human FUT2: human α(1,2)-fucosyltransferase FUT2 (secretor), literature homologue (protein, UniProt Q10981 1-343, looked up)
Galactoside …: MLVVQMPFSFPMAHFILFVFTVSTIFHVQQRLAKIQAMWELPVQIPVLASTSKALGPSQLRGMWTINAIGRLGNQMGEYATLYALAKMNGRPAFIPAQMHSTLAPIFRITLPVLHSATASRIPWQNYHLNDWMEEEYRHIPGEYVRFTGYPCSWTFYHHLRQEILQEFTLHDHVREEAQKFLRGLQVNGSRPGTFVGVHVRRGDYVHVMPKVWKGVVADRRYLQQALDWFRARYSSLIFVVTSNGMAWCRENIDTSHGDVVFAGDGIEGSPAKDFALLTQCNHTIMTIGTFGIWAAYLTGGDTIYLANYTLPDSPFLKIFKPEAAFLPEWTGIAADLSPLLKH
As for B6, the Km was 1 mM in data set [1] and 5.7 mM in data set [2].

(Values after patent US6399758B1, “Nucleic acids for reducing carbohydrate epitopes” (The Austin Research Institute, priority 1996, dated 2002).)
